Experimental data published in PMC7102498.

Biological target: T1, QseB (Escherichia coli ECDCM2 (clinical bovine mastitis isolate)) (UniProt P52076)
T1 sequence: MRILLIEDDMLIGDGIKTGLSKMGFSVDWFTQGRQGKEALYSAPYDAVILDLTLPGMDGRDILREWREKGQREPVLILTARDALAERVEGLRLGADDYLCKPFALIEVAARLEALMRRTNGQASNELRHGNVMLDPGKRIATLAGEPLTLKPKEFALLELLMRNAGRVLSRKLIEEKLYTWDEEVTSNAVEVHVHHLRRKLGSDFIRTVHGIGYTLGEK
Assay: EMSA

## ATGTTCGTGAATTTACAGGCGTTAGATTTACATACATTTGTGAATGTATGTACCATAGCACGACGATAATATAAACGCAGCAATGGGTTTATTAACTTTTGACCATTGACCAATTTGAAATCGGACACTCGAGGTTTACAT (double strand) [p-acrA promoter]
  binding: no binding
